Experimental data taken from the nanobody polyreactivity screen of Harvey et al. (2022).

Assay: yeast display, Sf9 membrane polyspecificity reagent, FACS + sequencing; frameworks hold sequencing errors
Summary of the method: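 Polyreactivity labels are assigned by the sorting gate from which each nanobody was recovered. The gates were low and high (top ~1%), set on anti-HA fluorescence for expression and streptavidin fluorescence for reagent binding. Before sorting, galactose-induced (36–48 hours) yeast display cells were stained for 1 hour at 4 °C with 10% biotinylated, detergent-solubilized Sf9 membrane reagent.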

Row | Sequence | polyreactivity (PSR sort gate)
1 | QVQLVESGGGLVQAGGSLRLSCAASGLTFRRYDMGWYSQAPGKERELVAAITGGGSTYYADSVKGRFTISRDNAKNTVYLQMNSLKPEDTAGYYCAAGTWYWSYAYDYWGQGTQVTVSS | high polyreactivity
2 | QVQLVESGGGLDQAGGSLRLSCAASGSTFYLYAMGWYRQAPGKERELVAAISSGGRTNYADSVKGRFTISRDNAKNTVYLQMNSLKPEDTAVYYCAARIQWPTWSLYYYWGQGTQVTVSS | high polyreactivity
3 | QVQLVESGGGLVQAGGSLRLSCAASGSTFVKYAMGWYRQAPGKERELVAAITASGGRTYYADSVKGRFTISRDNAKNTVYLQMISLKPEDTAVYYCNARGYHYGTLFDYWGQGTQVTVSS | high polyreactivity
4 | QVQLVESGGGLVQAGGSLRLSCAASGSTFFLYAMGWYRQAPGKERELVAAISTTGGSTNYADSVKGRFTISRDNAKNTVYLQMNSLKPEDTAVYYCAAGPSAQSIYDHWGQGTQVTLSS | low polyreactivity
5 | QVQLVESGGGLVQAGGSLRLICAASGSIFITYAMGWSRQAPGKERELVAAIRRGGRTNYADSVKGRFTISRDNAKNTVYLQMNSLKPEDTAVYYCAAEFHTGWPYYPDYAYDYWGQGTQVTVSS | low polyreactivity
6 | QVQLVESGGGLVQAGGSLRLSCAASGSILESNVMGWYRQAPGKERELVASISSSGDSTYADSVKGRFTISRDNAKNTVYLQMNSLKPEDTAVYYCNADRTQDRNPYTYATFDYWGQGTQVTVSS | low polyreactivity
7 | QVQLVESGGGLVQAGGSLRLSCAASGRTFYANAMGWYRQAPGKERELVAGISYSGGNTYYADSVKGRFTISRDNAKNTVYLQMNRLKPEYTAVYYCAAATDWEYWTYEYWRQGTQVTVSS | low polyreactivity
8 | QVQLVESGGGLVQAGGSLRLSCAASGSIFDSYAMGWYRQAPGKERELVAVISESGGTTYYADSVKGRFTISRDNAKNTVYLQMNSLKPEDTAVYYCAAVWYYQFGVWGYYWGQGTQVTVSS | low polyreactivity
9 | QVQLVESGGGLVQAGGSLRLSCAASGSTFWAYVMGWYRQAPGKERELVAAISKSGVRTHYADSVKGRFTISRDNAKNTVYLQMNSLKPEDTAVYYCAAGGVGNLDDYWGQVTQVTVSS | high polyreactivity
10 | QVHLVESGGGLVQAGGSLRLSCAASGRTIGVNAMGWYRQPHGTERELVAAITKDSGATNYADSVKGLFTISRDNAKITVYFQMNSLKADDTAVYYCAARVWVRGYYWGQGTQVTVSS | low polyreactivity
11 | QVQLVESAGGLVQAGGSLRLSCAASGFTFYYYTMGWYRQAPGKETELVAAITWRGGSTNYADSVKGRFTISRDNAKNTVYLQMNSLKPEDTAVYYCAAVSYWFWPGMDYWGQGTQVTVSS | low polyreactivity
12 | QVQLVESGGGLVQAGGSLRLSCAASGSIFGGYGMGWYRQAPGTERELVAAITSGSSTYYADSVKGRFTISRDNAKNTVYLQMNSLKPEDTAVYYCAARPYPHSAYEGDYWGRGTQVTVSS | low polyreactivity
13 | QVQLVDSGGGLVQAGGSLRLSCAASGFTFYRYAMGWYRPAPGKERELVAGITGSGGNTYYADSVKGRFTISRDNAKNTVYLQMNSLKPEDTAVYYCAAEDYVGWYNFEYWGQGNQVTVSS | high polyreactivity
14 | QVQLVESGGGLVQAGGSLRLSCAASGRTFWYYDMGWSRQAPGKERELVAAISRSGGSTYYADSVKGRFTISRDNAKNTVYLQMNSLKPEDTAVYFCAAVSYGYWVTEYYYWGQGSQVTVSS | high polyreactivity
15 | QVQLVESGGCLVQAGGSLRLSCAASGRTSDGYAMGWYRQAPGKERELVAGITEGGGDTYYADSVKGRFTISRDNAKITDYLQMNSLKPEDTAVYYCNAGEGSRLPYDYWGQGTQVTVSS | low polyreactivity
16 | QVQLVESVGGLVQAGGSLRLSCAASGFIFWPYAMGWSRQAPGKERELVAGITSDGSTHYADSVKGRFTISRDNAKNTVYLQINSLKPQDTAVYYCAKGIRYGYRVRVYYWGQGTQVTVSS | high polyreactivity
17 | QVQLVESGGGLVQAGGSLRLSCAASGSTFRLYAMGWYRPAPGKERELVAGISRTGTSTYYADSVKGRFTISRDNAKNTVYLQMNSLKPEDTAVYYCAAVRYWSDYDYWGQGTQVTVSS | high polyreactivity
18 | QVQLVESGGGLVQAGGSLRLSCAASGSPFGSNAMGWYRQAPGKERELVAAISYGGDRTYYADSVKGRFTISRDNAKNTVYLQMISLKPEDTALYYCNARIYKGYNYWGQGTQVTVSS | high polyreactivity
19 | QVQLVESGGGLVQAGGSLRLSCAASGIIFRWYAMGWYRQAPGKERELVAGITSTTGTTYYADSVKGRFTISRDNAKNTVYLQMNSLKPEDTAVYYCAADYYCYTTAGVVDSFEYWGQGTQVTVSS | low polyreactivity
20 | QVQLVESGGGLVQAGGSLRLSCAASGFIFVPNAMGWYRQAPGKERELVAAITWSGSSTYYADSVKGRFTISRDNAKNTVYLQINSLKPEDTAVYYCAADYPVWDEFYDSYEYWGQGTQVTVSS | high polyreactivity
21 | QVQLVESGGGLVQAGGSLRLSCAASGITFGRNAMGWYRQAPGKERELVAAISRGGSTNYADSVKGRFTISRDNAKNTVYLQMNSLKPEDTAVYYCNARSWPHGSWIPIHRRYGYWGQGTQVTVSS | high polyreactivity
22 | QVQLVESGGGLVQAGGSLRLSCAASGRNFPLNAMGWYRQAPWKERELVAAISIGGSTYYADSVKGRFTISRDNPKNTVYLQMNSLKPDETAVYYCAAVWYTSRQKYDYWGQGTQVTVSS | low polyreactivity

Row | Sequence | polyreactivity (PSR sort gate)
23 | QVQLLESGGGLVQAGGSLRLSCAASGIIFSSNAMGWYRKAPGKERELVAAITRRGGSTRYADSVKGRFTISRDNAKNTVYLQMNSLKPEDTAVYYCNALSGYPYRWGISYPMDYWGQGTQVTVSS | high polyreactivity
24 | QVQLVESGGGLVQAGGSLRLSCAASGSIFDTYAMGWYRQAPGQERELVAAITSGGSTNYADSVKGRFTISRDNAKNTVYLQMNSLKPEETAVYYCAADAEDRPSWPGNSEYEYWGQGTQVTVSS | low polyreactivity
25 | QVQLVESGGGLVQAGGSLRLSCAASGSIFRYYAMGLYRQAPGKERVLVAAFSGSGGITLYADSVKVRFSISRDNAKNTVYLQMNCLKPEDTAVYFCATRPGTRPAYDYWGQGTQVTVSS | high polyreactivity
26 | QVQLVESGGGLVQAGGSLRLSCAASGSIFTPYAMGWSRQAPGKLRELVADISRSGSTNYADSVKGRFTISRDNAKNTVYLQMNSLKPEDTAVYYCNADFWWHWGTSYVYWGQGTQVTVSS | high polyreactivity
27 | QVQLVESGGGLVQAGGSLRLSCAASGSTFPPYAMGWYRQAPGKERELVAAITASGGRTYYADSVKGRFTLSRDNAKNTVYLQMNSLKPEDTAVYYCAALRGSTYDYWGQGTQVTVSS | high polyreactivity
28 | QVQLVESGGGLVQAGGSLRLSCAASGSTLYRYAMGWYRQAPGKERELVAAISSAGSTHYADSVKGRFTISRDNAKNTVYLQMNSLKPEDTAVYYCAAKRYLKYGYWGQGTQVTVSS | high polyreactivity
29 | QVQLQESGGGLVQAGGSLRLSCAASGTIYWLWAMGWYCLAPGKERELVASISSGGTTYHADSVKGRFTISRDNAKYSVYLQMNSLKPEDTAVFYSAAFYVASAKLGYWGQGSQVTVSS | low polyreactivity
30 | QVQLVESCGGLVQAGGSLRLSCASSGRNFPVKAMGWYRQAPGKERELVAGITWSGDGSTYYADSVKGRFTISRDNAKNTVYLLMNSLKPEDTAVYYCAARLNLQGRYDYWGQGTQVTVSS | low polyreactivity
31 | QVQLVESGGGLVQAGGSLRLSCAASGSIFVDYAMGWSRQAPGKERELVAAITSGGRTNYADSVKGRFTISRDNAKNTVYLQMNSLKPEDTAVYYCNKTRYTNYYTTTFDYWGQGTQVTVSS | low polyreactivity
32 | QVQLVESGGGLVQAGGSLRLSCAASGSIFFWNTMGWYRQAPGKVRELVAAITVSGGSTYYADSVKGRFTISRDNAKNTVYLQMNSLKPEDSAVYYCAADPYRRYGYDSYNYWGQGTQVTVSS | high polyreactivity
33 | QVQLVESGGGLVQAGGSLRLSCASSGIILYYYVMGWYRQAPGKERELVAAINRSGTSTYYADSVKGRFTISRDNAKNTVYLQMNSLKPEDTAVYYCAAERYWSGGVFDYDYWGQGTQVTVSS | high polyreactivity
34 | QVQLVESGGGLVQAGGSLRLSCAASGITFRGYAMGWYRQAPGKERELVAAITWSGGSTYYADSVKGRFTISRDIAKNTVYLQMKSLKPEDTAVYYCAARGRRSFEYWGQGTHVTVSS | high polyreactivity
35 | QVQHVESGGGLVQAGGSLRLSCAASGSIFGQYAMGWDRQSPGKERELVAAISTSGGSTYYADSVKGRFTISRDNAKYSVYLQMYSLKPEDTAVYYCNAFNYGTQTYGYWGQGTQVTVSS | high polyreactivity
36 | QGQLVESGGGLVQAGGSLRLSCAASGRTFKVYAMGWYRQAPGKERELVAAISFSGGSTYYADSVKGRFTISRDNAKNTVYLQMNSLKPEDTAVYYCATTYPGAIRDYWGQGTQVTVSS | high polyreactivity
37 | QVQLVESGGGLVQAGGSLRLTCAASGRTFSVNAMGWYRQAPGKEREFVAAIRTSGGSTSYADSVKVRFTISRDNAKYTVFLQMSSLKPEDTAVYYCAADYGGTSYVRGTVGRKYDYWGQGTQVTVSS | high polyreactivity
38 | QVQLVESGGGLVQAGGSLRLSCAASGFTFGPYAMGWYRQAPGKERELVAAIRSGGSTNYADSVKGRFTISRDNAKNTVYLQMNSLKPEDTAVYYCAAGYRRGWVTMGYWGQGTQVTVSS | high polyreactivity
39 | QVQLVESGGGLVQAGGSLRLSCAASGRIFRYYAMGWYRQAPGKERELVAAISSSGGSTYYADSVKGRFTISRDNAKNTVYLQMNSLKPEDTAVYYCNTVGSVGKKRDYWGQGTQVTVSS | high polyreactivity
40 | QVQLVESGGGLVQAGGSLRLSCAASGINFVYYAMGWYRQAPGTEREMVAAISKSSGRTYYADSVKGRFTISRDYAKNTVYLQMNSLKPEDTAVYYCNARYRLSPPPLEYWGQGTQVTVSS | high polyreactivity
41 | QVQLVESGGGLVQAGGSLRLSCAATGRTSFRYTMGWYRQAPGKERELVAGISGSGGRTYYADSVKGRVTISRDNAKNTVYLQMNSLKPEDTAVYYCAAAWYTSHAKGKGGYWGQGTQVTVSS | high polyreactivity
42 | QVQLVESGGGLVQAGGSLSLSCAASGFIFPGNAKGWYRQAPGKERELVATISSGGSTKYADSVKGRFTISRDNANNTVYLQMNSLKPEDTAVYYCAARVYLGVFDYYYWGQGTQVTVSS | low polyreactivity
43 | QVQLVESGGGLVQAGGSLRLSCAASGFIFNNYAMGWSRQAPGKERELVAAITWSGGGTYYADSVKGRFTISRDNAKNTVYLQMNSLKPEDSAVYYCAVYYPAYLEEYWGQGTQVTVSS | high polyreactivity
